Data on four molecules can be found in publication PMC5019145 (Molecular microbiology, 2015).

Test [1] has as its target SaFlaH (Sulfolobus acidocaldarius, UniProt Q4J9K9, D122N). Put plainly: fluorescence titration. It counts as binding. To be noted: 1 µM protein, 5 mM MnCl2, pH 6.2, 25 °C; labelled compound.
The target in test [2] is SaFlaH (Sulfolobus acidocaldarius, UniProt Q4J9K9, K33A). Kind of test: fluorescence titration. It counts as binding. To be noted: 1 µM protein, 5 mM MnCl2, pH 6.2, 25 °C; labelled compound.
Test [3] has as its target Pyrococcus furiosus FlaH, wild type (PfFlaH) (Pyrococcus furiosus). Put plainly: MST.
The target in test [4] is T1, StrepII-tagged Sulfolobus acidocaldarius FlaH (StrepII-FlaH) (Sulfolobus acidocaldarius, UniProt Q4J9K9 1-228).
T1 sequence: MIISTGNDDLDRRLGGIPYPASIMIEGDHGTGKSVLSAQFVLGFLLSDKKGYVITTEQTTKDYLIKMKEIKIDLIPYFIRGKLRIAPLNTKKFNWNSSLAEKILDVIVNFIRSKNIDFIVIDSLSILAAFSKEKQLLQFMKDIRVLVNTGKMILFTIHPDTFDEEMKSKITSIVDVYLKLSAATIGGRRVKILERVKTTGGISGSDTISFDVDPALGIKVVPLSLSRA
Kind of test: pull-down.

Sequence of SaFlaH (Sulfolobus acidocaldarius, UniProt Q4J9K9, D122N) (Q4J9K9 whole entry D122N): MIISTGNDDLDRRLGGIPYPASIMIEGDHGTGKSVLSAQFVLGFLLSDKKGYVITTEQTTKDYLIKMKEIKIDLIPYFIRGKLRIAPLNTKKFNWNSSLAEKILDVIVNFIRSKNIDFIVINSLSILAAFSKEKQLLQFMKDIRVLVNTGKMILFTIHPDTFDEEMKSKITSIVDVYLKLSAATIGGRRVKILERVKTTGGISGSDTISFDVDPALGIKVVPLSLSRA
Sequence of SaFlaH (Sulfolobus acidocaldarius, UniProt Q4J9K9, K33A) (Q4J9K9 whole entry K33A): as the sequence (Q4J9K9 whole entry D122N) above, with K33A, N122D counted along it

For `CNc1ccccc1C(=O)O[C@H]1[C@@H](O)[C@H](n2cnc3c(N)ncnc32)O[C@@H]1COP(=O)(O)OP(=O)(O)OP(=O)(O)O` (mixture of isomers) [MANT-ATP, 2’-/3’-O-(N’-methylanthraniloyl) adenosine-5’-O-triphosphate], the “fluorescence titration (FRET from tryptophan to MANT)” value on SaFlaH [1] was “SaFlaH^K33A and SaFlaH^D122N only bound MANT-ATP with strongly reduced affinity”; on SaFlaH [2] it was “SaFlaH^K33A and SaFlaH^D122N only bound MANT-ATP with strongly reduced affinity”. By Kd is commonly meant a measure of binding affinity in units of concentration. High values mean weaker binding, low ones tighter binding. The molecule “Pyrococcus furiosus FlaI (PfFlaI) (enzyme)” gave a Kd in test [3] of 1 µM. That is a single-digit micromolar value.

B1: His6-tagged Sulfolobus acidocaldarius FlaXcc1 (FlaXc without the N-terminal domain 38-86) (domain or fragment, UniProt Q4J9K6 87-250, looked up)
chain: KKENELLTNITNSFNEMKKLIENLNSAVEELALSVKASESDSSSPFNTIIQQEEEHVSREISTVSQLVGSNNPNNVNLTWFIKSCVLLEIMEYDEEKIKQLYELGYVSSDDMFTILRILSFIKNRKITAKELASIAANIAESYSSLTPEIKKYIMILEGGGVNG
In the case of B1, in test [4], the binding result is given as “binds”.

B2: His6-tagged Sulfolobus acidocaldarius FlaXc (FlaX without its first 37 residues) (domain or fragment, UniProt Q4J9K6 38-250, looked up)
chain: KRVQTQQSPQNISQEQRFPTQQKPANDETSKYSSDSIEKALKDVLGKMDKKENELLTNITNSFNEMKKLIENLNSAVEELALSVKASESDSSSPFNTIIQQEEEHVSREISTVSQLVGSNNPNNVNLTWFIKSCVLLEIMEYDEEKIKQLYELGYVSSDDMFTILRILSFIKNRKITAKELASIAANIAESYSSLTPEIKKYIMILEGGGVNG
For B2, in test [4], the binding result is recorded as “binds”.
